{
  "source": "patent US20230357339A1",
  "about": "“Development of Cell-Permeable Truncated SOCS3 SH2 Domain (CP-SD) Recombinant Protein for Anti-Obesity Agent” (Cellivery Therapeutics, Inc., priority 2020, published 2023)",
  "key": {"[1]": {"system": "leptin resistant mHypoA2/21-SOCS3 cells", "test": "Biological activity test: overcoming leptin resistance (STAT3 phosphorylation, western blot)", "assay_type": "cell-based", "settings": "protein treated 1 hour, then 10 ng/mL mouse leptin 30 minutes", "experimental": "To validate that cell-permeable truncated SOCS3 recombinant protein can overcome leptin resistance, the purified recombinant proteins were treated at leptin resistant cell line mHypoA2/21-SOCS3. mHypoA2/21-SOCS3 was produced by over-expressing SOCS3 at mouse hypothalamic neuron mHypoA2/21, and cultured using DMEM containing 10% FBS and 7 mg/mL geneticin. Cells were seeded at the concentration of 150000 cells/60 mm plate and on the following day the medium was replaced with 7 mg/mL geneticin containing serum free DMEM and starved the cells for the following 16 hours. Purified CP-SD recombinant proteins were diluted into 7 mg/mL geneticin containing serum free DMEM and treated for 1 hour, proteins were removed, and 10 ng/mL mouse leptin was treated for 30 minutes.\nThe cells were lysed in a lysis buffer (150 mM NaCl, 20 mM Tris, 1% triton-X-100, pH 7.5) containing protease inhibitor and […], incubated for 20 min at 4° C., and centrifuged at 13,000 rpm for 20 min at 4° C. Equal amounts of lysates were separated on 10% SDS-PAGE gels and transferred to a PVDF membrane. The membranes were blocked using TBST buffer 5% bovine serum albumin (BSA) and for western blot analysis incubated with the following antibodies diluted in TBST buffer 5% bovine serum albumin (BSA): anti-phospho-STAT3 (Cell Signaling Technology, USA), anti-STAT3 (Cell Signaling Technology, USA) and anti-myc (Cell Signaling Technology, USA), then HRP conjugated anti-rabbit secondary antibody (Cell Signaling Technology, USA) and anti-mouse secondary antibody (Cell Signaling Technology, USA). The protein bands were detected with ECL solution using luminescent image analyzer (ImageQuant LAS 500, GE Healthcare)."}, "[2]": {"test": "Turbidity with thermal stress of 37° C. (absorbance at 350 nm)", "assay_type": "physicochemical", "settings": "for stability (turbidity) in serum free medium: thermal stress of 37° C.", "experimental": "The recombinant proteins were diluted in their storage buffer or serum free DMEM medium and added into wells of a clear 96 well plate. The plate was incubated at 37° C. and the absorbance of each well was measured at 350 nm every 30 minutes in a microplate reader (Synergy H1, BioTek)."}, "[3]": {"target": "T1, Phosphorylated human leptin receptor peptide (QRQPFVK[pY] ATLISNSK), phosphorylated Y985 (Homo sapiens, UniProt P48357)", "T1 construct": "Phosphorylated human leptin receptor peptide (QRQPFVK[pY] ATLISNSK); purchased Anygen (Gwangju, Korea); host or cells: synthetic peptide", "test": "Binding affinity to leptin receptor by isothermal titration calorimetry (ITC)", "settings": "leptin receptor peptide phosphorylated at Y985, storage buffer pH 4.0", "experimental": "The binding affinity of cell-permeable truncated SOCS3 SH2 domain recombinant proteins to leptin receptor was analysed using isothermal titration calorimetry (ITC). Phosphorylated human leptin receptor peptide (QRQPFVK[pY] ATLISNSK) used in the experiment was acquired from Anygen (Gwangju, Korea). The binding affinity of aMTD524-P2-1-6 was measured using the following methods. Leptin receptor peptide was dissolved into DMSO and was diluted into storage buffer (50 mM sodium acetate, 50 mM NaCl, pH 4.0) to reach a final peptide concentration of 400 μM and final DMSO concentration of 0.5%. Using dialysis method, purified aMTD524-P2-1-6 was maintained at the identical batch storage buffer, and was diluted to reach the final concentration of 50 μM. Next, binding affinity was measured using ITC (Auto-ITC200)."}},
  "data": [
    {"molecule": "aMTD524-P2-1-21: SEQ ID No. 279; contains SH2 (T52-A62), (L69-Q96), (V120-M128) and (A164-N185) (protein, Amino acid Sequence of aMTD-P2-1-21) TGGEANLLLSAGSGSGSGSGSGSGSGSAVALIVVPALAPEAAAKLIRDSSDQRHFFTLSVKTQSGTKNLRIQGGGGSGGGGSGGGGSGGGGSVLKLVHHYMGSGSGSGSAYYIYSGGEKIPLVLSRPLSS", "values": [
      {"measurement": "overcoming leptin resistance (STAT3 phosphorylation level)", "setting": "[1]", "value": "did not"}
    ]},
    {"molecule": "aMTD524-36: SEQ ID No. 282; truncate from the SH2 domain containing aMTD and SH2 (L69-Q96) (protein, Amino acid Sequence of aMTD524-36) AVALIVVPALAPEAAAKGFYWSAVTGGEANLLLSAEPAGTFLIRDSSDQRHFFTLSVKTQSGTKNLRIQCEGGSFSLQSDPRSTQPVPRFDCVLKLVHHYMGSGSGSGSAYYIYSGGEKIPLVLSRPLSSN", "values": [
      {"measurement": "overcoming leptin resistance (STAT3 phosphorylation level)", "setting": "[1]", "value": "did not overcome leptin resistance"}
    ]},
    {"molecule": "aMTD830-P2-1B: SEQ ID No. 255; aMTD830-replaced P2-1B, SH2 (L69-Q96) and SDB (protein, Amino acid Sequence of aMTD830-P2-1B, aMTD830-replaced P2-1B, SH2 (L69-Q96) and SDB) IALVAAPVALVPEAAAKLIRDSSDQRHFFTLSVKTQSGTKNLRIQEAAAKEAAAKEAAAKMAEQSDKDVKYYTLEEIQKHKDSKSTWLILHHKVYDLTKFLEEHPGGEEVLGEQAGGDATENFEDVGHSTDARELSKTYIIGELHPDDRSKIAKPSETL", "values": [
      {"measurement": "stability (turbidity) in serum free medium", "setting": "[2]", "value": "stable"},
      {"measurement": "overcoming leptin resistance (STAT3 phosphorylation level)", "setting": "[1]", "value": "overcame leptin resistance"}
    ]},
    {"molecule": "aMTD830-P2-1-24B: SEQ ID No. 261; aMTD830-replaced P2-1-24B (protein, Amino acid Sequence of aMTD830-P2-1-24B, aMTD830-replaced P2-1-24B) IALVAAPVALVPEAAAKLIRDSSDQRHFFTLSVKTQSGTKNLRIQGGGGSGGGGSGGGGSGGGGSHHYMGSGSGSGSAYYIYSGGEKIPLVLSRPLSSNEAAAKEAAAKEAAAKMAEQSDKDVKYYTLEEIQKHKDSKSTWLILHHKVYDLTKFLEEHPGGEEVLGEQAGGDATENFEDVGHSTDARELSKTYIIGELHPDDRSKIAKPSETL", "values": [
      {"measurement": "stability (turbidity) in serum free medium", "setting": "[2]", "value": "stable"},
      {"measurement": "overcoming leptin resistance (STAT3 phosphorylation level)", "setting": "[1]", "value": "overcame leptin resistance"}
    ]},
    {"molecule": "aMTD524-P2-1-23: SEQ ID No. 280; contains SH2 (L69-Q96), SH2 (H125-M128) and SH2 (A164-N185) (protein, Amino acid Sequence of aMTD-P2-1-23) AVALIVVPALAPEAAAKLIRDSSDQRHFFTLSVKTQSGTKNLRIQEAAAKEAAAKEAAAKEAAAKHHYMGSGSGSGSAYYIYSGGEKIPLVLSRPLSSN", "values": [
      {"measurement": "overcoming leptin resistance (STAT3 phosphorylation level)", "setting": "[1]", "value": "did not"}
    ]},
    {"molecule": "aMTD524-P2-1-6: SEQ ID No. 268; his tag-conjugated aMTD524-P2-1 (protein, His tag; Amino acid Sequence of aMTD524-P2-1-6) GSSHHHHHHSSGLVPRGSHMAVALIVVPALAPEAAAKLIRDSSDQRHFFTLSVKTQSGTKNLRIQ", "values": [
      {"measurement": "stability (turbidity) in storage buffer", "setting": "[2]; thermal stress of 37° C. for 3 hours, storage buffer", "value": "stable"},
      {"measurement": "overcoming leptin resistance (STAT3 phosphorylation level)", "setting": "[1]", "value": "overcame leptin resistance"},
      {"measurement": "Kd", "setting": "[3]", "value": 8, "unit": "µM"}
    ]},
    {"molecule": "aMTD830-P2-1-32B: SEQ ID No. 266; aMTD830-replaced P2-1-32B (protein, Amino acid Sequence of aMTD830-P2-1-32B, aMTD830-replaced P2-1-32B) IALVAAPVALVPEAAAKLIRDSSDQRHFFTLSVKTQSGTKNLRIQGGGGSGGGGSGGGGSGGGGSAYYIYSGGEKIPLVLSRPLSSNEAAAKEAAAKEAAAKMAEQSDKDVKYYTLEEIQKHKDSKSTWLILHHKVYDLTKFLEEHPGGEEVLGEQAGGDATENFEDVGHSTDARELSKTYIIGELHPDDRSKIAKPSETL", "values": [
      {"measurement": "stability (turbidity) in serum free medium", "setting": "[2]", "value": "stable"},
      {"measurement": "overcoming leptin resistance (STAT3 phosphorylation level)", "setting": "[1]", "value": "overcame leptin resistance"}
    ]},
    {"molecule": "aMTD524-37: SEQ ID No. 283; truncate from the SH2 domain containing aMTD and SH2 (L69-Q96) (protein, Amino acid Sequence of aMTD524-37) AVALIVVPALAPEAAAKLIRDSSDQRHFFTLSVKTQSGTKNLRIQCEGGSFSLQSDPRSTQPVPRFDCVLKLVHHYM", "values": [
      {"measurement": "overcoming leptin resistance (STAT3 phosphorylation level)", "setting": "[1]", "value": "did not overcome leptin resistance"}
    ]},
    {"molecule": "aMTD524-P2-1-24: SEQ ID No. 281; same regions as aMTD524-P2-1-23 with different linkers (protein, Amino acid Sequence of aMTD-P2-1-24, same regions as aMTD524-P2-1-23 with different linkers) AVALIVVPALAPEAAAKLIRDSSDQRHFFTLSVKTQSGTKNLRIQGGGGSGGGGSGGGGSGGGGSHHYMGSGSGSGSAYYIYSGGEKIPLVLSRPLSSN", "values": [
      {"measurement": "stability (turbidity) in serum free medium", "setting": "[2]", "value": "instability"},
      {"measurement": "overcoming leptin resistance (STAT3 phosphorylation level)", "setting": "[1]", "value": "overcame leptin resistance"}
    ]}
  ]
}
